Measured values reported in patent publication US20240043504A1 (published 2024).

Target: SARS-COV-2 RBD extracellular domain expressed with a C-terminal mouse IgG2a (SARS-COV-2 RBD-mFc) (SARS-CoV-2)
Assay: SPR, captured mAb, RBD-mFc in solution, 37 C

Row | Binder | Kd | koff | kon | t½
1 | mAb10936 (antibody, V domains shown) VH: QVQLVESGGGVVQPGRSLRLSCAASGFTFRNYGMHWVRQAPGKGLEWVSVIWYDGSNRYYADSVKGRFTISRDTSKNTLYLQMNSLRAEDTAVYYCARDPPITGTTGGDAFDIWGQGTMVTVSS VL: not shown | 0.0177 nM | 6.75e-05 s⁻¹ | 3.81e+06 M⁻¹ s⁻¹ | 2.85 h
2 | mAb10932 (antibody, V domains shown) VH: EVQLVESGGGLVQSGGSLRLSCAASGLTVSSNYMSWVRQAPGKGLEWVSVIYSGGSTFYSDSVKGRFTISRHNSKNTLYLQMNSLRAEDTAVYYCARARGDAFDIWGQGTMVTVSS VL: not shown | 0.153 nM | 6.86e-05 s⁻¹ | 448000 M⁻¹ s⁻¹ | 2.81 h
3 | mAb10934 (antibody, V domains shown) VH: not shown VL: DIQMTQSPSSLSASVGDRVTITCQASQDIWNYINWYQQKPGKAPKLLIYDASNLKTGVPSRFSGSGSGTDFTFTISSLQPEDIATYYCQQHDDLPPTFGQGTKVEIKR | 0.0216 nM | – | – | 0.657 h
4 | mAb10967 (antibody, V domains shown) VH: EVQLVESGGGLVQPGGSLRLSCAASGFTVSSNYMSWVRQAPGKGLEWVSVIYPGGSTFYADSVKGRFTISRDNSKNTLYLQMNSLRAEDTAVYYCARDQRDFAWGQGTLVTVSS VL: DIQMTQSPSSLSASVGDRVTITCQASQDISNYLNWYQQKPGKAPKLLIYDASNLETGVPSRFSGSGSGTDFTFTISGLQPEDIATYYCQQYDNLPPTFGQGTRLEIKR | 0.0229 nM | – | – | 5.78 h
5 | mAb10938 (antibody, V domains shown) VH: EVQLVESGGGLVQPGGSLRLSCAVSGFTVSSNYMSWVRQAPGKGLEWVSLIYSGGSTFYADSVKGRFTISRHNSKNTLYLQMNSLRAEDTAVYYCAREGGYSYDYNYWGQGTLVTVSS VL: DIQMTQSPSSLSASVGDRVTITCQASQDIRNYLNWYQQKPGKAPKLLIYDASNLETGVPSRFSGIGSGTDFTFTISSLQPEDIATYYCQQYDNLPITFGQGTRLEIKR | 0.173 nM | – | – | 2.94 h
6 | mAb10955 (antibody, V domains shown) VH: EVQLVESGGGLVQPGGSLRVSCAASGFTVSRNYMSWVRQAPGKGLEWVSVIYSGGSTFYADSVKGRFTISRDNSKNTLYLQMNSLRAEDTAIYYCARYIPRFDPWGQGTLVTVSS VL: DIQMTQSPSSLSASVGDRVTITCQASQDISNYLNWFQQKPGRAPKLLIYDASNLETGVPSRFSGSGSGTDFTFTISSLQPEDIATYYCQQYDNLPITFGQGTRLEIKR | 0.202 nM | – | – | 0.497 h
7 | mAb10935 (antibody, V domains shown) VH: EVQLVESGGGLVQPGGSLRLSCAASGFTVSSNYMSWVRQAPGKGLEWVSLIYSGGSTYYADSVKGRFTISRHNSKNTLYLQMNSLRSEDTAVYYCARVPLGDYYYGMDVWGQGTTVTVSS VL: DIQMTQSPSSLSASVGDRVTITCQASQDINKYLNWYQQKPGKAPKLLIYDASNLETGVPSRFSGSGSGTDFTFTISSLQPEDIATYYCQQSDNLPLTFGGGTKVEIKR | 0.0869 nM | 0.000494 s⁻¹ | 5.68e+06 M⁻¹ s⁻¹ | 0.39 h
8 | mAb10954 (antibody, V domains shown) VH: EVQLVESGGGLVQPGGSLRLSCAASGITVSSNYMSWVRQAPGKGLEWVSLIYSGGSTYYADSVKGRFTISRDNSKNTLYLQMNSLRVEDTAVYYCARDHGMAAAGYNYWGQGTLVTVSS VL: DIQMTQSPSSLSASVGDRVTITCQASQDINKYLNWYQQKPGKAPKLLIYDASNLETGVPSRFSGSGSGTDFTFTINSLQPEDFATYFCQQYDNLPPAFGQGTKVEIKR | 0.0369 nM | – | – | –
9 | mAb10965 (antibody, V domains shown) VH: EVQLVESGGGLIQPGGSLRLSCAASVFTVSYNYMSWVRQAPGKGLEWVSVIYSGGSTYYADSVKGRFTISRDNSKNTLYLQMNSLRAEDTAVYYCARALPGWGGSFEYFDYWGQGTLVTVSS VL: not shown | 0.237 nM | – | – | 0.57 h
10 | mAb10923 (antibody, V domains shown) VH: QVQLVQSGAEVKKPGASVKVSCKASGYTFINYYIHWVRQAPGQGLEWMGWINPNSGGTNYAQKFQGRVTMTRDTSISTAYMELSRLRSDDTAVYYCAIITIFGVVTWFDPWGQGTLVTVSS VL: not shown | 0.0336 nM | 0.000185 s⁻¹ | 5.53e+06 M⁻¹ s⁻¹ | 1.04 h
11 | mAb10969 (antibody, V domains shown) VH: QVQLVESGGGVVQPGRSLRLSCAASGFTFSSYAMHWVRQAPGKGLEWVAVISYDGSNKYYADSVKGRFTISRDNSKNTLYLQMNSLRAEDTAVYYCARDGRTITMVRGVIDDAFDIWGQGTMVTVSS VL: not shown | 0.174 nM | – | – | 1.36 h
12 | mAb10939 (antibody, V domains shown) VH: EVQLVESGGGLVQPGGSLRLSCAASGLTVSSNYMNWVRQVPGKGLEWVSVIYSGGSKFYVDSVKGRFTISRHNSKNTLYLQMNSLRPEDTAVYYCTRDAQYYGMDVWGQGTTVTVSS VL: DIQMTQSPSSLSASVGDRVTITCRASQSISTYLHWYQQKPGEAPKLLIYAASSLQSGVPSRFSGSGSGTDFTLTISSLQPEDFATYYCQQSYSTPPEIFGQGTKLEIKR | 0.155 nM | 0.000165 s⁻¹ | 1.06e+06 M⁻¹ s⁻¹ | 1.17 h
13 | mAb10956 (antibody, V domains shown) VH: EVQLVESGGGLVQPGGSLRLSCAASGLTVSSNYMSWVRQAPGKGLEWVSVIYSGGSTFYADSVKGRFTISRDNSKNTLYLQMNSLRAEDTAVYYCARDLIKYGMDVWGQGTTVTVSS VL: not shown | 0.158 nM | – | – | 0.563 h
14 | mAb10984 (antibody, V domains shown) VH: EVQLVESGGGLVQPGGSLRLSCAASGLTVNRNYMSWVRQAPGKGLEWVSLIYSGGSTYYADSVKGRFTISRDNSKNTLYLQMNSLRLEDTAVYYCARGELGIPYGMDVWGQGTTVTVSS VL: QSVLTQPPSVSAAPGQKVTISCSGSSSNIGNNYVSWYQQLPGTAPKLLIYDNNKRPSGIPDRFSGSKSGTSATLGITGLQTGDEADYYCGTWDSSLSAGVFGGGTKLTVLG | 0.0404 nM | – | – | 2.3 h
15 | mAb10930 (antibody, V domains shown) VH: EVQLVESGGGLVQPGRSLRLSCAASGFTFDDYAMYWVRQAPGKGLEWVSGISWNSGSIGYADSVKGRFTISRDNAKNSLYLQMNSLRAADTALYYCAKDKDWNSRGYYYYGMDVWGQGTTVTVSS VL: not shown | 0.399 nM | 0.000597 s⁻¹ | 1.49e+06 M⁻¹ s⁻¹ | 0.322 h
16 | mAb10966 (antibody, V domains shown) VH: EVQLVESGGGLVQPGGSLRLSCAASGLTVSSNYMSWVRQAPGKGLEWVSVIYSGGSTFYADSVKGRFTISRDNSKNTLYLQMNSLRPEDTAVYYCAREGRIAATGYGMDVWGQGTTVTVSS VL: not shown | 0.0405 nM | – | – | 1.94 h
17 | mAb10937 (antibody, V domains shown) VH: QITLKESGPTLVKPTQTLTLTCTFSGFSLSTNVVGVGWIRQPPGKALEWLALIYWNDDKRYSPSLKSRLTITKDTSKNQVVLTMTNMDPVDTATYYCAHGPTGDYFDYWGQGTLVTVSS VL: not shown | 0.0129 nM | 5.74e-05 s⁻¹ | 4.47e+06 M⁻¹ s⁻¹ | 3.35 h
18 | mAb10964 (antibody, V domains shown) VH: QVQLQESGPGLVKPSETLSLTCTVSGGSINNYYWIWIRQPPGKGLEWIGYIYHSGSTNYNPSLKSRVTISVDTSKNQFSLKVSSVTAADTAVYYCANMVRGVYEDDYWGQGTLVTVSS VL: DIQMTQSPSSLSASVGDRVTITCRASQSISNYLNWYQQKPGKAPKLLIFAASSLRSGVPSRFSGSGSGTDFTLTISSLHPEDFATYYCQQNYNTPLTFGPGTKVDIKR | – | – | – | 1.53 h
19 | mAb10982 (antibody, V domains shown) VH: EVQLVESGGGLVQPGGSLRLSCAASGLTVSSNYMSWVRQAPGKGLEWVSVIYSGGTTYYADSVKGRFTISRHNSKNTLSLQMNSLRAEDTAVYYCARGEGANYYGMDVWGQGTTVTVSS VL: QSVLTQPPSVSGAPGQRVTISCTGSSSNIGTGYDVHWYQQLPGTAPKLLIYGNSNRPSGVPDRFSGSKSGTSASLAITGLQAEDEADYYCQSYDSSLSGYVVFGGGTKLTVLG | 0.21 nM | 0.000258 s⁻¹ | 1.23e+06 M⁻¹ s⁻¹ | 0.747 h
20 | mAb10985 (antibody, V domains shown) VH: EVQLVESGGGLVQPGRSLRLSCAASGFTFDDYAMHWVRQAPGKGLEWVSGISWNRGSIGYADSVKGRFTISRDNAKNSLYLQMSSLRAEDTALYYCAKDGERWDSVVVPSARNGMDVWGQGTTVTVSS VL: QSVLTQPPSVSGAPGQRVTISCTGSSSNIGAGYDVHWYQQLPGTAPKLLIYGNSNRPSGVPDRFSGSKSGTSASLAITGLQAEDEADYYCQSYDSSLSGSYVFGTGTKVTVLG | 0.0401 nM | – | – | 0.513 h
21 | mAb10971 (antibody, V domains shown) VH: EVQLVESGGGLIQPGGSLRLSCAASGVTVSSNYMSWVRQAPGKGLEWVSVIYSGGSTFYSDSVKGRFSISRDNSKNTLYLQMNSLRAEDTAVYYCARDLYYYGMDVWGQGTTVTVSS VL: DIQLTQSPSFLSASVGDRVTITCRASQGISTYLAWYQQKPGKAPKLLIYAASTLQSGVPSRFSGSGSGTEFTLTISSLQPEDFATYYCQQLDSYPGLTFGGGTKVEIKR | 0.0397 nM | 9.41e-05 s⁻¹ | 2.37e+06 M⁻¹ s⁻¹ | 2.04 h
22 | mAb10921 (antibody, V domains shown) VH: EVQLVESGGGLVQPGGSLRLSCAASGITVSSNYMSWVRQAPGKGLEWVSVIYSGGSTFYADSVKGRFTISRHNSKNTLYLQMNSLRAEDTAVYYCARERNFDAFDIWGQGTMVTVSS VL: DIQMTQSPSSVSASVGDRVTITCRASQGISSWLAWYQQKPGKAPKLLIYAASSLQSGVPSRFSGSGSGTDFTLTISSLQPEDFATYYCQQANSFPLFTFGPGTKVDIKR | 0.273 nM | 0.000125 s⁻¹ | 458000 M⁻¹ s⁻¹ | 1.54 h
23 | mAb10957 (antibody, V domains shown) VH: EVQLVESGGGLVQPGGSLRLSCAASGVTVSSNYMSWVRQAPGKGLEWVSVIYSGGSTFYADSVKGRFTISRDNSKNTLFLQMNSLRIEDTAVYYCARDLGPYGMDVWGQGTTVTVSS VL: DIQLTQSPSFLSASVGDRVTITCRASQGISSYLAWYQQKPGKAPKLLIYAASTLQSGVPSRFSGSGSGTQFILTISSLQPEDFATYYCQQLNSYPGFTFGPGTKVDIKR | 0.0463 nM | – | – | 2.68 h
